# Source: patent publication US20250076311A1 (Chugai, published 2025)
# Changes are numbered by the printed parent chain. In names and notes the source's numbering stands.
# T1: cynomolgus monkey FcγRIIa1 extracellular domain with C-terminal His-tag (cynomolgus monkey)
# T1 construct: also called cyno FcgRIIa1; cynoFcγRIIa1
# T1 chain: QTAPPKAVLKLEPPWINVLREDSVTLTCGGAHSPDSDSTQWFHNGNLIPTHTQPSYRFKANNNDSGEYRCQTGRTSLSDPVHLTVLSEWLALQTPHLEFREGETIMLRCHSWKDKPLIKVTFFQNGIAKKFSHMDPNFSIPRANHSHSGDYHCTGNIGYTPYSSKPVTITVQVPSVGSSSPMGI
# T2: human FcγRIIaH extracellular domain with C-terminal His-tag (human, UniProt P12318 34-217)
# T2 construct: also called human FcgRIIaH; FcγRIIa (type H)
# T2 sequence: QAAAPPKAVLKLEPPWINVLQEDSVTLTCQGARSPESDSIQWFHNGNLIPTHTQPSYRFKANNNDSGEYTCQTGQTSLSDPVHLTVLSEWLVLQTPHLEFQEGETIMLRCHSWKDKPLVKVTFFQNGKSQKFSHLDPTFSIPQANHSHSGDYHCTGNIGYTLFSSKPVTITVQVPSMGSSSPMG
# T3: cynomolgus monkey FcγRIIIaS extracellular domain with C-terminal His-tag (cynomolgus monkey, UniProt Q8SPW2 21-206 at identity 1.00))
# T3 construct: also called cyno FcgRIIIaS; cynoFcγRIIIaS
# T3 chain: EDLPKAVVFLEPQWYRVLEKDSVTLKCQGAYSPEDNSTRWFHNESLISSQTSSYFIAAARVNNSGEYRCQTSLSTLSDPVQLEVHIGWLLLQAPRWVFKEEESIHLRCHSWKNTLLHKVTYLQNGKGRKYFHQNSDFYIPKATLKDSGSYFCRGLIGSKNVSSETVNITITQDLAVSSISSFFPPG
# T4: cynomolgus monkey FcγRIIa2 extracellular domain with C-terminal His-tag (cynomolgus monkey)
# T4 construct: also called cyno FcgRIIa2; cynoFcγRIIa2
# T4 chain: T1 chain with P95T, T121A, I127K, A128S, K130N, D135N, R142Q
# T5: cynomolgus monkey FcγRIIb extracellular domain with C-terminal His-tag (cynomolgus monkey)
# T5 construct: also called cyno FcgRIIb; cynoFcγRIIb
# T5 chain: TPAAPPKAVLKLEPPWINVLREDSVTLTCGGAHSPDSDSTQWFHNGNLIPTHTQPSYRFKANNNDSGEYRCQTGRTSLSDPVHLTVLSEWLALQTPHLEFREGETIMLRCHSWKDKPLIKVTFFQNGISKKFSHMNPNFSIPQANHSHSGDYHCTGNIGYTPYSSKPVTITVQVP
# T6: human FcγRIIaR extracellular domain with C-terminal His-tag (human, UniProt P12318 34-217)
# T6 construct: also called human FcgRIIaR; FcγRIIa (type R)
# T6 chain: T2 sequence with H134R
# T7: human FcγRIIb extracellular domain with C-terminal His-tag (human, UniProt P31994 43-217)
# T7 construct: also called human FcgRIIb
# T7 sequence: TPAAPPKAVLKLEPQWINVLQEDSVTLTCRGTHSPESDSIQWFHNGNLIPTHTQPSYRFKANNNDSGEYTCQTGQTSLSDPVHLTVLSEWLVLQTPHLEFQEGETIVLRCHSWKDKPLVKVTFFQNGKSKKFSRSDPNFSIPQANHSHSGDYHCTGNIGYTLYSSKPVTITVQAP
# T8: human FcγRIIaH extracellular domain with C-terminal His-tag (human, UniProt P12318 34-217)
# T8 construct: also called human FcgRIIaH; FcγRIIa (type H)
# T8 sequence: T2 sequence
# T9: cynomolgus monkey FcγRIIa2 extracellular domain with C-terminal His-tag (cynomolgus monkey)
# T9 construct: also called cyno FcgRIIa2; cynoFcγRIIa2
# T9 chain: T1 chain with P95T, T121A, I127K, A128S, K130N, D135N, R142Q
# T10: cynomolgus monkey FcγRIIb extracellular domain with C-terminal His-tag (cynomolgus monkey)
# T10 construct: also called cyno FcgRIIb; cynoFcγRIIb
# T10 chain: T5 chain
# T11: human FcγRIIaR extracellular domain with C-terminal His-tag (human, UniProt P12318 34-217)
# T11 construct: also called human FcgRIIaR; FcγRIIa (type R)
# T11 chain: T2 sequence with H134R
# T12: cynomolgus monkey FcγRIIa3 extracellular domain with C-terminal His-tag (cynomolgus monkey)
# T12 construct: also called cyno FcgRIIa3; cynoFcγRIIa3
# T12 chain: T1 chain with P95T, T121A, A128S, H133P, D135N
# T13: cynomolgus monkey FcγRIIa3 extracellular domain with C-terminal His-tag (cynomolgus monkey)
# T13 construct: also called cyno FcgRIIa3; cynoFcγRIIa3
# T13 chain: T1 chain with P95T, T121A, A128S, H133P, D135N
# T14: cynomolgus monkey FcγRIIa1 extracellular domain with C-terminal His-tag (cynomolgus monkey)
# T14 construct: also called cyno FcgRIIa1; cynoFcγRIIa1
# T14 chain: T1 chain
# B1: M103205H795-MY446/M103202L889-SK1 (antibody, human IgG1, kappa)
# heavy: QVTLKESGPVLVKPTETLTLTCTVSGIDLSHDDISWVRQAPGKGLEWVGIISYAGSTYYASWAKGRLTISKDTSKNQVVLTMTNMDPVDTATYYCARGVPAYSHGGDLWGQGTLVTVSSASTKGPSVFPLAPSSKSTSGGTAALGCLVKDYFPEPVTVSWNSGALTSGVHTFPAVLQSSGLYSLSSVVTVPSSSLGTQTYICNVNHKPSNTKVDKKVEPKSCDKTHTCPPCPAHELLTGPSVFLFPPKPKDTLMISRTPEVTCVVVDVSDEDPEVKFNWYVDGVEVHNAKTKPREEQYNSTYRVVSVLTVLHQDWLNGKEYKCKVSNKALPKPIEKTISKAKGQPREPQVYTLPPSREEMTKNQVSLTCLVKGFYPSDIAVEWESNGQPENNYKTTPPVLDSDGSFFLYSKLTVDKSRWQQGNVFSCSVMHEALHNHYTQKSLSLSP
# light: DIVMTQSPATLSLSPGERATLSCTSSQSVYHANWLSWFQQKPGQPPKLLIYWASTLAYGVPSRFSGSGSGTDFTLTISSLQPEDAATYYCAGGYGGGRYAFGQGTKVEIKRTVAAPSVFIFPPSDEQLKSGTASVVCLLNNFYPREAKVQWKVDNALQSGNSQESVTEQDSKDSTYSLSSTLTLSKADYEKHKVYACEVTHQGLSSPVTKSFNRGEC
# notes: Substitutions in EU numbering on SG1
# B2: M103205H795-MY472/M103202L889-SK1 (antibody)
# chain 1: B1 heavy with A233S, H234P
# chain 2: B1 light
# B3: M103205H795-MY450/M103202L889-SK1 (antibody, human IgG1, kappa)
# heavy: B1 heavy with H234M
# light: B1 light
# notes: as for B1
# B4: M103205H795-MY531 / M103202L889-SK1 (antibody, human IgG1, kappa, name in EU numbering)
# heavy: B1 heavy with H234P, L236W, K328T
# light: B1 light
# B5: M103205H795-MY529 / M103202L889-SK1 (antibody, human IgG1, kappa, name in EU numbering)
# heavy: B1 heavy with H234P, L236W, Q297L
# light: B1 light
# B6: M103205H795-MY521 / M103202L889-SK1 (antibody)
# heavy: B1 heavy with H234D, Q297L
# light: B1 light
# notes: 'Q235L' copied as printed, probably Q295L
# B7: M103205H795-MY388 (first row so labelled: G236L/H268D/Q295L/K326T/A330K) / M103202L889-SK1 (antibody, human IgG1, kappa, name in EU numbering)
# heavy: B1 heavy with H234P, T238L, Q297L, K328T
# light: B1 light
# notes: The label MY388 is printed for two different variants; also called MY388 (first of two rows with this label)
# B8: M103205H795-MY523 / M103202L889-SK1 (antibody, human IgG1, kappa, name in EU numbering)
# heavy: B1 heavy with A233G, H234P, S241V, Q297L
# light: B1 light
# B9: M103205H795-MY475/M103202L889-SK1 (antibody)
# heavy: B1 heavy with A233W, H234P
# light: B1 light
# notes: as for B1
# B10: M103205H795-MY380 / M103202L889-SK1 (antibody, human IgG1, kappa, name in EU numbering)
# heavy: B1 heavy with H234P, T238N, D270E, P398K
# light: B1 light
# B11: M103205H795-MY527 / M103202L889-SK1 (antibody, human IgG1, kappa, name in EU numbering)
# heavy: B1 heavy with A233T, H234P, Q297L
# light: B1 light
# B12: M103205H795-MY283 / M103202L889-SK1 (antibody, human IgG1, kappa, name in EU numbering)
# heavy: B1 heavy with H234P, Q297L
# light: B1 light
# Columns and labels:
# [1] = molecular target: T1, cynomolgus monkey FcγRIIa1 …; assay: SPR (Biacore), KD of SG1 / KD of variant
# [2] = molecular target: T2, human FcγRIIaH extracellular domain …; assay: SPR (Biacore), KD of SG1 / KD of variant
# [3] = molecular target: T3, cynomolgus monkey FcγRIIIaS …; assay: SPR (Biacore), antibody captured, FcgR analyte
# [4] = molecular target: T4, cynomolgus monkey FcγRIIa2 …; assay: SPR (Biacore), KD of SG1 divided by KD of variant
# Experimental: (§1) The kinetic analysis of interactions between these antibodies and FcγR was carried out using BIACORE® T200 or BIACORE® 4000 (GE Healthcare). HBS-EP+ (GE Healthcare) was used as the running buffer, and the measurement temperature was set to 25° C. […] After the measurement, the antibody captured on the chip was washed off by allowing reaction with 10 mM glycine-HCl, pH1.5 and 25 mM NaOH so that the chip was regenerated and used repeatedly. The sensorgrams obtained as measurement results were analyzed by the 1:1 Langmuir binding model using the BIACORE® Evaluation Software to calculate the binding rate constant ka (L/mol/s) and dissociation rate constant kd (1/s), and the dissociation constant KD (mol/L) was calculated from these values. […] Regarding such interactions, KD values were calculated using the following 1:1 binding model described in BIACORE® T100 Software Handbook BR1006-48 Edition AE.
# [5] = molecular target: T5, cynomolgus monkey FcγRIIb extracellular …; assay: SPR (Biacore), KD of SG1 divided by KD of variant
# Experimental: as §1
# [6] = molecular target: T5, cynomolgus monkey FcγRIIb extracellular …; assay: SPR (Biacore), antibody captured, FcgR as analyte
# Experimental: as §1
# [7] = molecular target: T6, human FcγRIIaR extracellular domain …; assay: SPR (Biacore), KD of SG1 divided by KD of variant
# Experimental: as §1
# [8] = molecular target: T7, human FcγRIIb extracellular domain with …; assay: SPR (Biacore), KD of SG1 divided by KD of variant
# Experimental: as §1
# [9] = molecular target: T4, cynomolgus monkey FcγRIIa2 …; assay: SPR (Biacore), antibody captured, FcgR as analyte
# Experimental: as §1
# [10] = molecular target: T8, human FcγRIIaH extracellular domain …; assay: SPR (Biacore), antibody captured, FcgR as analyte
# Experimental: as §1
# [11] = molecular target: T15, human FcγRIIIaV extracellular domain with C-terminal His-tag (human, UniProt P08637 17-208); assay: SPR (Biacore), antibody captured, FcgR as analyte
# T15 construct: also called human FcgRIIIaV
# Experimental: as §1
# [12] = molecular target: T9, cynomolgus monkey FcγRIIa2 …; assay: SPR (Biacore), KD of SG1 / KD of variant
# [13] = molecular target: T10, cynomolgus monkey FcγRIIb extracellular …; assay: SPR (Biacore), KD of SG1 / KD of variant
# [14] = molecular target: T11, human FcγRIIaR extracellular domain …; assay: SPR (Biacore), KD of SG1 / KD of variant
# [15] = molecular target: T12, cynomolgus monkey FcγRIIa3 …; assay: SPR (Biacore), antibody captured, FcgR analyte
# [16] = molecular target: T2, human FcγRIIaH extracellular domain …; assay: SPR (Biacore), antibody captured, FcgR analyte
# [17] = molecular target: T13, cynomolgus monkey FcγRIIa3 …; assay: SPR (Biacore), KD of SG1 divided by KD of variant
# Experimental: as §1
# [18] = molecular target: T14, cynomolgus monkey FcγRIIa1 …; assay: SPR (Biacore), antibody captured, FcgR as analyte
# Experimental: as §1
# T15 sequence (P08637 17-208 F176V): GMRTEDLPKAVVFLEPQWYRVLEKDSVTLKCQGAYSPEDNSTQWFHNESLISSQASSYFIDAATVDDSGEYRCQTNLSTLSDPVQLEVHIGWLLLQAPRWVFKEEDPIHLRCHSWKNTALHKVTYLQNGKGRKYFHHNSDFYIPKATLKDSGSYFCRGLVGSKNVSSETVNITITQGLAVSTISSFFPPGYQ
binder,measurement,setting,value
B1,KD fold (SG1 = 1),[1],1.5 fold
B2,KD fold (SG1 = 1),[1],1.3 fold
same,KD fold (SG1 = 1),[2],2.8 fold
same,Kd,[3],2300 nM
B3,KD fold (SG1 = 1),[1],2.5 fold
same,Kd,[3],1300 nM
B4,KD fold (SG1 = 1),[4],5.5 fold
B5,KD fold (SG1 = 1),[5],5 fold
same,Kd,[6],300 nM
B6,KD fold (SG1 = 1),[5],2.3 fold
same,KD fold (SG1 = 1),[7],3.7 fold
same,KD fold (SG1 = 1),[8],3.1 fold
same,Kd,[9],3300 nM
same,Kd,[10],290 nM
B7,Kd,[6],1600 nM
same,Kd,[11],2.4 nM
B8,KD fold (SG1 = 1),[7],5.2 fold
same,Kd,[6],480 nM
B9,KD fold (SG1 = 1),[12],5.1 fold
same,KD fold (SG1 = 1),[13],6.7 fold
same,KD fold (SG1 = 1),[14],5.2 fold
same,Kd,[15],2500 nM
same,Kd,[16],900 nM
B10,KD fold (SG1 = 1),[17],5.2 fold
same,Kd,[18],930 nM
B11,KD fold (SG1 = 1),[4],3.9 fold
same,KD fold (SG1 = 1),[5],5.3 fold
same,KD fold (SG1 = 1),[8],3.3 fold
B12,KD fold (SG1 = 1),[17],3.9 fold
same,KD fold (SG1 = 1),[7],3.1 fold
